According to paper PMC4014545, “Structure and Inhibition of Mouse Leukotriene C4 Synthase” (PLoS ONE, 2014):
Blank lines part the entries; values can stand above or below the molecule they belong to.

Columns and labels:
[1] = biological target: T1, human leukotriene C4 synthase (hLTC4S) (Homo sapiens, UniProt Q16873); experiment: LTC4 formation by purified enzyme, RP-HPLC; competitive inhibition model fit; format: biochemical
T1 construct: gene LTC4S
T1 sequence (Q16873 1-150): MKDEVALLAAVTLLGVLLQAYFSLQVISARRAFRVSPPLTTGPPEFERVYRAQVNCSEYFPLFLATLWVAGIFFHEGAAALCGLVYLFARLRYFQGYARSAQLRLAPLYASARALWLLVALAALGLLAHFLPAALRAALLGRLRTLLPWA

[2] = biological target: T2, mouse leukotriene C4 synthase (mLTC4S) (Mus musculus, UniProt Q60860); experiment: as above; format: biochemical
T2 construct: gene Ltc4s; N-terminal hexa-histidine tag
T2 sequence (Q60860 1-150): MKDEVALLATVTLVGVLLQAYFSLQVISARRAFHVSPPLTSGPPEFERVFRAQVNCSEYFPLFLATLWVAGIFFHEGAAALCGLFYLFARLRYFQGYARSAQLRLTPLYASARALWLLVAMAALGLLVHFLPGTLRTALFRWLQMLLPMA

[3] = biological target: T2, mouse leukotriene C4 synthase (mLTC4S); experiment: X-ray crystal structure (co-crystal), […] Å; Km […] also measured; format: binding
[4] = substrate: CCCCC/C=C\C\C=C/C=C/C=C/[C@@H]1O[C@H]1CCCC(=O)O; experiment: steady-state kinetics (Km) of purified enzyme, RP-HPLC; format: biochemical, Mus musculus; details: GSH hydrophobic LTA4 binding site; pH 7.8
[5] = substrate: CCCCC/C=C\C\C=C/C=C/C=C/[C@@H]1O[C@H]1CCCC(=O)O; experiment: as above; format: biochemical, Homo sapiens; details: GSH hydrophobic LTA4 binding site; pH 7.8

Ki [1]: 41 ± 6.6 nM
Ki [2]: 37 ± 6.4 nM
Molecule: CN(c1ccc(Cl)cc1)c1ccc(C(=O)c2ccc(C(=O)c3ccccc3)c(C(=O)O)c2)nc1 [TK04, 2-Benzoyl-5-{5-[(4-chlorophenyl) (methyl)amino]pyridine-2-carbonyl}benzoic acid]

Molecule: N[C@@H](CCC(=O)N[C@@H](CS)C(=O)NCC(=O)O)C(=O)O [GSH]
X-ray crystal structure (co-crystal), 2.7 Å; Km 1.2±0.24 mM also measured [3]: In the structure of the mLTC4S in complex with GSH, the tripeptide has a “U” shaped conformation

B1: mouse leukotriene C4 synthase (mLTC4S) (Mus musculus) (protein)
chain: T2 sequence (Q60860 1-150)
notes: N-terminal hexa-histidine tag
Km [4]: 36 ± 8 µM
kcat [4]: 81 ± 7 s⁻¹
kcat/Km [4]: 2.3e+06 ± 260000 M⁻¹ s⁻¹

B2: human leukotriene C4 synthase (hLTC4S) (Homo sapiens) (protein)
chain: T1 sequence (Q16873 1-150)
Km [5]: 23 ± 3 µM
kcat [5]: 15.5 ± 0.8 s⁻¹
kcat/Km [5]: 600000 ± 57000 M⁻¹ s⁻¹
